Laboratory results taken from patent US20200087400A1 (EUREKA THERAPEUTICS, published 2020).

B1: PSA146/HLA-A*02:01-specific scFv phage clone #12 (scFv, V domains shown)
VH: QMQLVQSGSEVKKPGASVKVSCKASGYTFTSYGISWVRQAPGQGLEWMGWISAYNGNTDYVQKLQGRVTMTTDTSTNTAYMELGSLGSDDTAVYYCARTNYNKYDIWGQGTLVTVSS
VL: QSVLTQPPSVSGAPGQRVTISCTGSSSNIGAGYDVHWYQQLPGTAPKLLIYGNSNRPSGVPDRFSGSKSGTSASLAITGLQAEDEADYYCQSYDSSLSEVFGTGTKVTVLG
B2: PSA146/HLA-A*02:01-specific scFv phage clone #9 (scFv, V domains shown)
VH: QVQLVQSGAEVKKPGASVKVSCKASGYTFTSYGISWVRQAPGQGLEWMGWISAYNGNTNYAQKLQGRVTMTTDTSTSTAYMELRSLRSDDTAVYYCARSSQYYVWDSWGQGTLVTVSS
VL: QSVVTQPPSVSGAPGQRVTISCTGSSSNFGAGYDVHWYQQLPGTAPKLLIYGNSNRPSGVPDRFSGSKSGTSASLAITGLQAEDEADYYCQSYDSSLSGWVFGGGTKLTVLG
B3: PSA146/HLA-A*02:01-specific scFv phage clone #10 (scFv, V domains shown)
VH: QVQLVQSGAEVKKPGSSVKVSCKASGGTFSSYAISWVRQAPGQGLEWMGWINPNSGGTNYAQKFQGRVTMTRDTSISTAYMELSRLRSDDTAVYYCARWSYYYFQQFWSLDGWGQGTLVTVSS
VL: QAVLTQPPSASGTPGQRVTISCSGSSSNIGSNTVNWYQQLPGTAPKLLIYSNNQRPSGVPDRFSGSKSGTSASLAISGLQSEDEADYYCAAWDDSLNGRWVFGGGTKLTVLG
B4: PSA146/HLA-A*02:01-specific scFv phage clone #13 (scFv, V domains shown)
VH: QVQLVQSGAEVKKPGASVKVSCKASGYTFTSYYMHWVRQAPGQGLEWMGGFDPEDGETIYAQKFQGRVTMTEDTSTDTAYMGLSSLRSEDTAVYYCARYSYDYWGQGTLVTVSS
VL: QAVVTQEPSLTVSPGGTVTLTCASSTGAVTSGYYPNWFQQKPGQAPRALIYSTSNKHSWTPARFSGSLLGGKAALTLSGVQPEDEAEYYCLLYYGGAYVFGTGTKVTVLG

Molecular target: T1, control peptide A2E-6/HLA-A*02:01 complex on T2 cells (member of the P19 mixture) (human)
T1 construct: Loaded on T2 cells as part of the mixture of 19 control peptides
Test: flow cytometry, phage on T2 cells
Experimental: (§1) Individual phage clones from enriched phage display panning pools against PSA146/HLA-A*02:01 complex were incubated in the coated plates. Binding of the phage clones was detected by HRP-conjugated anti-M13 antibodies and developed using HRP substrate. The absorbance was read at 450 nm. […] Then, unique antibody clones were identified through DNA sequencing of ELISA-positive clones. […] T2 cells loaded with different peptides and β2M were first stained with purified scFv phage clones, followed by staining with a mouse anti-M13 mAb, and finally R-PE conjugated horse anti-mouse IgG from Vector Labs. Each step of the staining was performed for between 30-60 minutes on ice and the cells were washed twice between stainings. All 16 clones recognized PSA146-loaded T2 cells specifically. FIG. 3 provides examples of PSA146/HLA-A*02:01 specific phage clone binding to peptide-loaded T2 cells through FACS.

| Binder | binding result |
| --- | --- |
| B1 | no binding |
| B2 | no binding |
| B3 | no binding |
| B4 | no binding |

Molecular target: T2, control peptide A2E-3/HLA-A*02:01 complex on T2 cells (member of the P19 mixture) (human)
T2 construct: Loaded on T2 cells as part of the mixture of 19 control peptides
Test: flow cytometry, phage on T2 cells
Experimental: as §1

| Binder | binding result |
| --- | --- |
| B1 | no binding |
| B2 | no binding |
| B3 | no binding |
| B4 | no binding |

Molecular target: T3, control peptide A2E-4/HLA-A*02:01 complex on T2 cells (member of the P19 mixture) (human)
T3 construct: Loaded on T2 cells as part of the mixture of 19 control peptides
Test: flow cytometry, phage on T2 cells
Experimental: as §1

| Binder | binding result |
| --- | --- |
| B1 | no binding |
| B2 | no binding |
| B3 | no binding |
| B4 | no binding |

Molecular target: T4, control peptide A2E-16/HLA-A*02:01 complex on T2 cells (member of the P19 mixture) (human)
T4 construct: Loaded on T2 cells as part of the mixture of 19 control peptides
Test: flow cytometry, phage on T2 cells
Experimental: as §1

| Binder | binding result |
| --- | --- |
| B1 | no binding |
| B2 | no binding |
| B3 | no binding |
| B4 | no binding |

Molecular target: T5, control peptide A2E-10/HLA-A*02:01 complex on T2 cells (member of the P19 mixture) (human)
T5 construct: Loaded on T2 cells as part of the mixture of 19 control peptides
Test: flow cytometry, phage on T2 cells
Experimental: as §1

| Binder | binding result |
| --- | --- |
| B1 | no binding |
| B2 | no binding |
| B3 | no binding |
| B4 | no binding |

Molecular target: T6, control peptide A2E-7/HLA-A*02:01 complex on T2 cells (member of the P19 mixture) (human)
T6 construct: Loaded on T2 cells as part of the mixture of 19 control peptides
Test: flow cytometry, phage on T2 cells
Experimental: as §1

| Binder | binding result |
| --- | --- |
| B1 | no binding |
| B2 | no binding |
| B3 | no binding |
| B4 | no binding |

Molecular target: T7, control peptide A2E-17/HLA-A*02:01 complex on T2 cells (member of the P19 mixture) (human)
T7 construct: Loaded on T2 cells as part of the mixture of 19 control peptides
Test: flow cytometry, phage on T2 cells
Experimental: as §1

| Binder | binding result |
| --- | --- |
| B1 | no binding |
| B2 | no binding |
| B3 | no binding |
| B4 | no binding |

Molecular target: T8, control peptide A2E-13/HLA-A*02:01 complex on T2 cells (member of the P19 mixture) (human)
T8 construct: Loaded on T2 cells as part of the mixture of 19 control peptides
Test: flow cytometry, phage on T2 cells
Experimental: as §1

| Binder | binding result |
| --- | --- |
| B1 | no binding |
| B2 | no binding |
| B3 | no binding |
| B4 | no binding |

Molecular target: T9, control peptide A2E-23/HLA-A*02:01 complex on T2 cells (member of the P19 mixture) (human)
T9 construct: Loaded on T2 cells as part of the mixture of 19 control peptides
Test: flow cytometry, phage on T2 cells
Experimental: as §1

| Binder | binding result |
| --- | --- |
| B1 | no binding |
| B2 | no binding |
| B3 | no binding |
| B4 | no binding |

Molecular target: T10, control peptide A2E-11/HLA-A*02:01 complex on T2 cells (member of the P19 mixture) (human)
T10 construct: Loaded on T2 cells as part of the mixture of 19 control peptides
Test: flow cytometry, phage on T2 cells
Experimental: as §1

| Binder | binding result |
| --- | --- |
| B1 | no binding |
| B2 | no binding |
| B3 | no binding |
| B4 | no binding |

Molecular target: T11, control peptide A2E-9/HLA-A*02:01 complex on T2 cells (member of the P19 mixture) (human)
T11 construct: Loaded on T2 cells as part of the mixture of 19 control peptides
Test: flow cytometry, phage on T2 cells
Experimental: as §1

| Binder | binding result |
| --- | --- |
| B1 | no binding |
| B2 | no binding |
| B3 | no binding |
| B4 | no binding |

Molecular target: T12, control peptide A2E-2/HLA-A*02:01 complex on T2 cells (member of the P19 mixture) (human)
T12 construct: Loaded on T2 cells as part of the mixture of 19 control peptides
Test: flow cytometry, phage on T2 cells
Experimental: as §1

| Binder | binding result |
| --- | --- |
| B1 | no binding |
| B2 | no binding |
| B3 | no binding |
| B4 | no binding |

Molecular target: T13, control peptide A2E-8/HLA-A*02:01 complex on T2 cells (member of the P19 mixture) (human)
T13 construct: Loaded on T2 cells as part of the mixture of 19 control peptides
Test: flow cytometry, phage on T2 cells
Experimental: as §1

| Binder | binding result |
| --- | --- |
| B1 | no binding |
| B2 | no binding |
| B3 | no binding |
| B4 | no binding |

Molecular target: T14, control peptide A2E-14/HLA-A*02:01 complex on T2 cells (member of the P19 mixture) (human)
T14 construct: Loaded on T2 cells as part of the mixture of 19 control peptides
Test: flow cytometry, phage on T2 cells
Experimental: as §1

| Binder | binding result |
| --- | --- |
| B1 | no binding |
| B2 | no binding |
| B3 | no binding |
| B4 | no binding |

Molecular target: T15, control peptide A2E-5/HLA-A*02:01 complex on T2 cells (member of the P19 mixture) (human)
T15 construct: Loaded on T2 cells as part of the mixture of 19 control peptides
Test: flow cytometry, phage on T2 cells
Experimental: as §1

| Binder | binding result |
| --- | --- |
| B1 | no binding |
| B2 | no binding |
| B3 | no binding |
| B4 | no binding |

Molecular target: T16, control peptide A2E-21/HLA-A*02:01 complex on T2 cells (member of the P19 mixture) (human)
T16 construct: Loaded on T2 cells as part of the mixture of 19 control peptides
Test: flow cytometry, phage on T2 cells
Experimental: as §1

| Binder | binding result |
| --- | --- |
| B1 | no binding |
| B2 | no binding |
| B3 | no binding |
| B4 | no binding |

Molecular target: T17, control peptide A2E-19/HLA-A*02:01 complex on T2 cells (member of the P19 mixture) (human)
T17 construct: Loaded on T2 cells as part of the mixture of 19 control peptides
Test: flow cytometry, phage on T2 cells
Experimental: as §1

| Binder | binding result |
| --- | --- |
| B1 | no binding |
| B2 | no binding |
| B3 | no binding |
| B4 | no binding |

Molecular target: T18, control peptide A2E-15/HLA-A*02:01 complex on T2 cells (member of the P19 mixture) (human)
T18 construct: Loaded on T2 cells as part of the mixture of 19 control peptides
Test: flow cytometry, phage on T2 cells
Experimental: as §1

| Binder | binding result |
| --- | --- |
| B1 | no binding |
| B2 | no binding |
| B3 | no binding |
| B4 | no binding |

Molecular target: T19, control peptide A2E-1/HLA-A*02:01 complex on T2 cells (member of the P19 mixture) (human)
T19 construct: Loaded on T2 cells as part of the mixture of 19 control peptides
Test: flow cytometry, phage on T2 cells
Experimental: as §1

| Binder | binding result |
| --- | --- |
| B1 | no binding |
| B2 | no binding |
| B3 | no binding |
| B4 | no binding |

Molecular target: T20, HLA-A*02:01 on T2 cells with no peptide loaded (human)
T20 construct: TAP-deficient T2 cells, no peptide loaded from outside; also called T2 cells without peptide loading
Test: flow cytometry, phage on T2 cells, anti-M13 + R-PE anti-mouse IgG
Outline: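 Phage ELISA: individual scFv phage clones from panning pools enriched against PSA146/HLA-A*02:01 were incubated in coated streptavidin plates; binding was detected with HRP anti-M13 and HRP substrate, read at 450 nm. For flow cytometry, T2 cells loaded with peptide and β2M were stained with purified phage clones.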

| Binder | binding result |
| --- | --- |
| B1 | no binding |
| B2 | no binding |
| B3 | no binding |
| B4 | no binding |

Molecular target: T21, Bio-P19 member A2E-2 (chain 2 carries a C-terminal BirA substrate peptide (BSP), enzymatically biotinylated; the BSP letters are not given in the patent and are left out)
T21 construct: also called biotinylated control peptide A2E-2/HLA-A*02:01 monomer
Test: phage ELISA, streptavidin plate, anti-M13-HRP
Outline: (§2)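 T2 cells + peptide + β2M → purified scFv phage → mouse anti-M13 mAb → R-PE anti-mouse IgG; each step 30-60 min on ice, two washes between. ELISA: phage clones on coated plate, HRP anti-M13, A450.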

| Binder | binding result |
| --- | --- |
| B1 | no binding |
| B2 | no binding |
| B3 | no binding |
| B4 | no binding |

Molecular target: T22, Bio-P19 member A2E-23 (chain 2 carries a C-terminal BirA substrate peptide (BSP), enzymatically biotinylated; the BSP letters are not given in the patent and are left out)
T22 construct: also called biotinylated control peptide A2E-23/HLA-A*02:01 monomer
Test: phage ELISA, streptavidin plate, anti-M13-HRP
Outline: as §2

| Binder | binding result |
| --- | --- |
| B1 | no binding |
| B2 | no binding |
| B3 | no binding |
| B4 | no binding |

Molecular target: T23, Bio-P19 member A2E-3 (chain 2 carries a C-terminal BirA substrate peptide (BSP), enzymatically biotinylated; the BSP letters are not given in the patent and are left out)
T23 construct: also called biotinylated control peptide A2E-3/HLA-A*02:01 monomer
Test: phage ELISA, streptavidin plate, anti-M13-HRP
Outline: as §2

| Binder | binding result |
| --- | --- |
| B1 | no binding |
| B2 | no binding |
| B3 | no binding |
| B4 | no binding |
